# Patent publication US20240261333A1, “NOVEL TARGETS FOR ENHANCING ANTI-TUMOR IMMUNITY” (THE BROAD INSTITUTE, INC., priority 2021, published 2024)
# Tests used:
# RPS15 (human) = RPS15 (human) (UniProt P62841); assay: co-IP/MS, anti-FLAG IP of C-FLAG B3GNT2 cell lysate
# CALU (human) = CALU (human) (UniProt O43852); assay: as above
# SLC25A4 (human) = SLC25A4 (human) (UniProt P12235); assay: as above
# PRDX1 (human) = PRDX1 (human) (UniProt Q06830); assay: as above
# CKAP4 (human) = CKAP4 (human) (UniProt Q07065); assay: as above
# UQCRC2 (human) = UQCRC2 (human) (UniProt P22695); assay: as above
# CAPZB (human) = CAPZB (human) (UniProt P47756); assay: as above
# RPL23A (human) = RPL23A (human) (UniProt P62750); assay: as above
# RPLPO (human) = RPLPO (human) (UniProt P05388); assay: as above
# ERLIN1 (human) = ERLIN1 (human) (UniProt O75477); assay: as above
# RPS9 (human) = RPS9 (human) (UniProt P46781); assay: as above
# ATP1A1 (human) = ATP1A1 (human) (UniProt P05023); assay: as above
# DNAJA1 (human) = DNAJA1 (human) (UniProt P31689); assay: as above
# HSD17B12 (human) = HSD17B12 (human) (UniProt Q53GQ0); assay: as above
# RCN2 (human) = RCN2 (human) (UniProt Q14257); assay: as above
# PRDX2 (human) = PRDX2 (human) (UniProt P32119); assay: as above
# CASP14 (human) = CASP14 (human) (UniProt P31944); assay: as above
# PDIA6 (human) = PDIA6 (human) (UniProt Q15084); assay: as above
# TUBB (human) = TUBB (human) (UniProt P07437); assay: as above
# GCN1 (human) = GCN1 (human) (UniProt Q92616); assay: as above
# RPS5 (human) = RPS5 (human) (UniProt P46782); assay: as above
# RPS3A (human) = RPS3A (human) (UniProt P61247); assay: as above
# FAM3C (human) = FAM3C (human) (UniProt Q92520); assay: as above
# IPO4 (human) = IPO4 (human) (UniProt Q8TEX9); assay: as above
# RPL30 (human) = RPL30 (human) (UniProt P62888); assay: as above
# SQSTM1 (human) = SQSTM1 (human) (UniProt Q13501); assay: as above
# RPL14 (human) = RPL14 (human) (UniProt P50914); assay: as above
# RPL12 (human) = RPL12 (human) (UniProt P30050); assay: as above
# RPL24 (human) = RPL24 (human) (UniProt P83731); assay: as above
# CANX (human) = CANX (human) (UniProt P27824); assay: as above
# ERLIN2 (human) = ERLIN2 (human) (UniProt O94905); assay: as above
# FKBP10 (human) = FKBP10 (human) (UniProt Q96AY3); assay: as above
# RPL13A (human) = RPL13A (human) (UniProt P40429); assay: as above
# STAU1 (human) = STAU1 (human) (UniProt O95793); assay: anti-FLAG co-IP from lysate of C-FLAG B3GNT2 cells, mass spectrometry
# IFI16 (human) = IFI16 (human) (UniProt Q16666); assay: as above
# HADHB (human) = HADHB (human) (UniProt P55084); assay: co-IP, anti-FLAG, lysate of cells with C-FLAG B3GNT2; mass spectrometry
# EIF5B (human) = EIF5B (human) (UniProt O60841); assay: as above
# RPS28 (human) = RPS28 (human) (UniProt P62857); assay: as above
# GCN1 (human), sequence (Q92616 2-2671 limits assumed): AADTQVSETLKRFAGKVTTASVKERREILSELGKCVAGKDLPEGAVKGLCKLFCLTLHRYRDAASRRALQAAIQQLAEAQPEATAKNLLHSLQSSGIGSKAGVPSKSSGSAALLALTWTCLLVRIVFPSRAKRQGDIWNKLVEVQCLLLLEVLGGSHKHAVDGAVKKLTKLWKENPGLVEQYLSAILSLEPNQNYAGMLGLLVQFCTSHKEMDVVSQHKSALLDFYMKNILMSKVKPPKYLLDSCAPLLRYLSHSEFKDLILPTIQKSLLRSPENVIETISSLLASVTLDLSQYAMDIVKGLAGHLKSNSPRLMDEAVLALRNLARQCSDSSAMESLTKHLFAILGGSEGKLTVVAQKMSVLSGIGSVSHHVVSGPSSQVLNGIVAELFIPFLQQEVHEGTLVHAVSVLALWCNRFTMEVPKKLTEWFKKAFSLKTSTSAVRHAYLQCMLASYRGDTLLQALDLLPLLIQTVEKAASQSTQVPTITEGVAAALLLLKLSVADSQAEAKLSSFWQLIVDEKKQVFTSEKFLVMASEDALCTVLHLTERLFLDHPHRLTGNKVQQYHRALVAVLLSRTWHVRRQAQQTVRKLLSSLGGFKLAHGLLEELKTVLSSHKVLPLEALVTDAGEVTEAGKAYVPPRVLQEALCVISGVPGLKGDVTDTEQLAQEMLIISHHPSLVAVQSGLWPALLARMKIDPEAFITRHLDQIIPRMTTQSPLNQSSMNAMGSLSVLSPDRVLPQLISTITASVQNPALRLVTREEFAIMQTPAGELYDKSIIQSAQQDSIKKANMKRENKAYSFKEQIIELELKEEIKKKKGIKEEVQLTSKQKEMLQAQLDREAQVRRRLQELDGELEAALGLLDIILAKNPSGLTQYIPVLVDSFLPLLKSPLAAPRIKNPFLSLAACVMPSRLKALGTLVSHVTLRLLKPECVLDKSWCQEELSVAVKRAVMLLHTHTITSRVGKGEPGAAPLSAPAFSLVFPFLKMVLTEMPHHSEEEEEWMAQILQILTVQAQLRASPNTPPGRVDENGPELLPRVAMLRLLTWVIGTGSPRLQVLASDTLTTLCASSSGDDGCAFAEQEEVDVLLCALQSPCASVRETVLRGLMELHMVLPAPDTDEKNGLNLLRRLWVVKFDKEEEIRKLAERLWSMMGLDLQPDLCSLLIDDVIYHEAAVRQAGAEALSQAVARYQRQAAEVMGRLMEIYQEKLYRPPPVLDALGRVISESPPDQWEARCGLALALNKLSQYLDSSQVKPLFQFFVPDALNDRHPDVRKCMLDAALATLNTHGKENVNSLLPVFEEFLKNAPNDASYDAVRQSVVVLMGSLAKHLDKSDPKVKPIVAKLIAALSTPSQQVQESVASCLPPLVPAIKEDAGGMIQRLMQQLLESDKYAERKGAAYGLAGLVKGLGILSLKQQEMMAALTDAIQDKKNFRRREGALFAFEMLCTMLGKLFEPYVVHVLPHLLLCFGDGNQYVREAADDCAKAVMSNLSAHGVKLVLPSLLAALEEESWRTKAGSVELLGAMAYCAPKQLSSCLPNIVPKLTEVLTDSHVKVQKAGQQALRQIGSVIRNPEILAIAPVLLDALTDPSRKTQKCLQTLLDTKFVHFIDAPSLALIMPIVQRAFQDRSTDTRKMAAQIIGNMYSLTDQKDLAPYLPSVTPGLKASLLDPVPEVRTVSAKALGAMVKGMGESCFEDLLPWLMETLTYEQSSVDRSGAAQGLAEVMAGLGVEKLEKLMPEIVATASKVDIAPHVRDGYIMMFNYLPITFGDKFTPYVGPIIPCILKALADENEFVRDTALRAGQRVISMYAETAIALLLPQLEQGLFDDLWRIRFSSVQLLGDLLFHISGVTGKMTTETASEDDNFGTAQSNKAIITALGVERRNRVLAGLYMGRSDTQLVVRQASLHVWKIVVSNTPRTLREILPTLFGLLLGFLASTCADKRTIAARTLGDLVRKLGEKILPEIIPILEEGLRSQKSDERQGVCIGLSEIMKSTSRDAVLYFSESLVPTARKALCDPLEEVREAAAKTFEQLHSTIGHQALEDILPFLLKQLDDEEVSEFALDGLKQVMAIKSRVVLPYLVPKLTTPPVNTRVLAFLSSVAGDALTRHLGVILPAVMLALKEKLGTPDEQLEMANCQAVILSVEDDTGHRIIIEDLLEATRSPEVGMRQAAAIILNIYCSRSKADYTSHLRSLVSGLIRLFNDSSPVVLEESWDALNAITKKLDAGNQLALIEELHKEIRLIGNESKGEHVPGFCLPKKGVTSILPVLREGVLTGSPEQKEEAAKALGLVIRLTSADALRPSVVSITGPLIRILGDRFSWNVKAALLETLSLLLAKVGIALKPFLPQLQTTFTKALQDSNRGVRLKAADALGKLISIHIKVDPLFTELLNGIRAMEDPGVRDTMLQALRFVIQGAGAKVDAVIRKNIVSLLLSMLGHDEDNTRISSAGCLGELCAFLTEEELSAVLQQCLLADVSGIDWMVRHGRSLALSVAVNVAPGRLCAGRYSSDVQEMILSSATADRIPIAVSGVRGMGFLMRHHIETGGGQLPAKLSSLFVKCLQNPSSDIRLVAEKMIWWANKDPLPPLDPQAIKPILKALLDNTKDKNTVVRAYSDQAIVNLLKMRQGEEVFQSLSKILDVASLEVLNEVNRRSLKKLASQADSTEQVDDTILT
# FAM3C (human), sequence (Q92520 25-227 limits assumed): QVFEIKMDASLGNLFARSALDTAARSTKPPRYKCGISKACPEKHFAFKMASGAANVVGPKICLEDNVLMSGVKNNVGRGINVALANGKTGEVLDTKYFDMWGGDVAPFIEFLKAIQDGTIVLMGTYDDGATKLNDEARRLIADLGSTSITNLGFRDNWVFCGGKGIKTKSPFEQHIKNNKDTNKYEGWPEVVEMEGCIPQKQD
# RCN2 (human), sequence (Q14257 other isoform, or with tags, fused parts or gaps limits assumed): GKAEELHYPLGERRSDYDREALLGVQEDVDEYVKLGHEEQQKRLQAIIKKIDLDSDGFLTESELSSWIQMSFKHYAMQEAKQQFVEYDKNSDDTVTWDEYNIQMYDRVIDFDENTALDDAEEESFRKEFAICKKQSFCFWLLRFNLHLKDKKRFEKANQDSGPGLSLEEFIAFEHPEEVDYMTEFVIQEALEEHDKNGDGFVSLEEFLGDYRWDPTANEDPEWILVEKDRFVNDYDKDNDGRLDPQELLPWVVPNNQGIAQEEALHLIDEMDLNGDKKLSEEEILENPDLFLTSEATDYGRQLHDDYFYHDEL
# SLC25A4 (human), sequence (P12235 2-298 limits assumed): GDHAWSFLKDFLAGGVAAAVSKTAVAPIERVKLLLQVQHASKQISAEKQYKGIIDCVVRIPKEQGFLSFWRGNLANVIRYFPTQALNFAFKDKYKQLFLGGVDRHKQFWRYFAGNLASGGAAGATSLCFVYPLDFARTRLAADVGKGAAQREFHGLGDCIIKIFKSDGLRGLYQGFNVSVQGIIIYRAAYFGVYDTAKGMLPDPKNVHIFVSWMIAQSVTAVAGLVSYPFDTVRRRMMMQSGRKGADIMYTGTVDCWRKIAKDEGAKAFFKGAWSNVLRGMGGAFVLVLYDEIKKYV
# FKBP10 (human), sequence (Q96AY3 27-582 limits assumed): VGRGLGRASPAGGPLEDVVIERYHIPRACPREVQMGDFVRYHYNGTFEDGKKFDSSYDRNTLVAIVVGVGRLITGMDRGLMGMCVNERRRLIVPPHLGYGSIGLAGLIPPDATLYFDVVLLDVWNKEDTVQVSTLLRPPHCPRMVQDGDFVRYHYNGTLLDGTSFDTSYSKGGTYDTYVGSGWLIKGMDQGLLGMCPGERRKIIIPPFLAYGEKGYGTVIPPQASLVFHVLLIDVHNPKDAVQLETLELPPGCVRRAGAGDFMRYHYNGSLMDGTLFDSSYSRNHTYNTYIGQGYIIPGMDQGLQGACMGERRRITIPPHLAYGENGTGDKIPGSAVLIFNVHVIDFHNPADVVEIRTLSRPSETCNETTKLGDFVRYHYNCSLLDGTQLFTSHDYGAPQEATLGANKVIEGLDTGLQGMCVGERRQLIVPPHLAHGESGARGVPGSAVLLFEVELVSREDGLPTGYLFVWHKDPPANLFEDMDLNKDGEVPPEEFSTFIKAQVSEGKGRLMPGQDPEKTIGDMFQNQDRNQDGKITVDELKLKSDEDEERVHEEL
# UQCRC2 (human), sequence (P22695 15-453 limits assumed): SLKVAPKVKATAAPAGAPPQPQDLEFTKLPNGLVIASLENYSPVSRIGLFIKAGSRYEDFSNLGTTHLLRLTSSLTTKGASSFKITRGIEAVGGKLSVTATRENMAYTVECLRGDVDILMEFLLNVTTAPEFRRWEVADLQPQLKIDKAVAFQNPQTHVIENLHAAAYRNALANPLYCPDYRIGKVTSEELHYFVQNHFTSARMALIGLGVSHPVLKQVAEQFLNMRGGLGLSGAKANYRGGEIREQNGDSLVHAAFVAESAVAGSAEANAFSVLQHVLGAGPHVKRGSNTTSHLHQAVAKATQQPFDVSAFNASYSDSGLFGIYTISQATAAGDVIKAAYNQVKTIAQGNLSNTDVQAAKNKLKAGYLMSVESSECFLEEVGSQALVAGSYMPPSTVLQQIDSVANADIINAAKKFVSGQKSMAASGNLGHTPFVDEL
# HSD17B12 (human), sequence (Q53GQ0 whole entry): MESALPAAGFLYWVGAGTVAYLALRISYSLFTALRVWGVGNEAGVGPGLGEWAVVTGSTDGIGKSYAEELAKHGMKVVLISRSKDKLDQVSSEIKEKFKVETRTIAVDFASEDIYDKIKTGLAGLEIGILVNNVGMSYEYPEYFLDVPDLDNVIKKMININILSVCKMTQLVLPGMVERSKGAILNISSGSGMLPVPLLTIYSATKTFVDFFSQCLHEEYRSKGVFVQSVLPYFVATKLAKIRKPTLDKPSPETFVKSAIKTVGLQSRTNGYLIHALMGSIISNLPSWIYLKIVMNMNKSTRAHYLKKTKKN
# PRDX2 (human), sequence (P32119 2-198 limits assumed): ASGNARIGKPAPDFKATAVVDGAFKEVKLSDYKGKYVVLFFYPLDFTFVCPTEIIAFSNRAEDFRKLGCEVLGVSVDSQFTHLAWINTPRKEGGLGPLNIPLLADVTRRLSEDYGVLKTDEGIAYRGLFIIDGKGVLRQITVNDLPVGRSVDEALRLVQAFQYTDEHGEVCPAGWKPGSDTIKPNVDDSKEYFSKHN
substance,measurement,setting,value
C-terminal FLAG tagged B3GNT2 (from UniProt Q9NY97 1-397) (enzyme),co-IP mass spectrometry count,RPS15 (human),11
same,co-IP mass spectrometry count,CALU (human),13
same,co-IP mass spectrometry count,SLC25A4 (human),14
same,co-IP mass spectrometry count,PRDX1 (human),6
same,co-IP mass spectrometry count,CKAP4 (human),14
same,co-IP mass spectrometry count,UQCRC2 (human),4
same,co-IP mass spectrometry count,CAPZB (human),5
same,co-IP mass spectrometry count,RPL23A (human),10
same,co-IP mass spectrometry count,RPLPO (human),10
same,co-IP mass spectrometry count,ERLIN1 (human),9
same,co-IP mass spectrometry count,RPS9 (human),6
same,co-IP mass spectrometry count,ATP1A1 (human),12
same,co-IP mass spectrometry count,DNAJA1 (human),10
same,co-IP mass spectrometry count,HSD17B12 (human),10
same,co-IP mass spectrometry count,RCN2 (human),16
same,co-IP mass spectrometry count,PRDX2 (human),5
same,co-IP mass spectrometry count,CASP14 (human),9
same,co-IP mass spectrometry count,PDIA6 (human),14
same,co-IP mass spectrometry count,TUBB (human),117
same,co-IP mass spectrometry count,GCN1 (human),4
same,co-IP mass spectrometry count,RPS5 (human),6
same,co-IP mass spectrometry count,RPS3A (human),29
same,co-IP mass spectrometry count,FAM3C (human),23
same,co-IP mass spectrometry count,IPO4 (human),17
same,co-IP mass spectrometry count,RPL30 (human),14
same,co-IP mass spectrometry count,SQSTM1 (human),43
same,co-IP mass spectrometry count,RPL14 (human),21
same,co-IP mass spectrometry count,RPL12 (human),11
same,co-IP mass spectrometry count,RPL24 (human),14
same,co-IP mass spectrometry count,CANX (human),11
same,co-IP mass spectrometry count,ERLIN2 (human),9
same,co-IP mass spectrometry count,FKBP10 (human),16
same,co-IP mass spectrometry count,RPL13A (human),13
same,co-IP mass spectrometry count,STAU1 (human),6
same,co-IP mass spectrometry count,IFI16 (human),2
same,co-IP mass spectrometry count,HADHB (human),3
same,co-IP mass spectrometry count,EIF5B (human),3
same,co-IP mass spectrometry count,RPS28 (human),3
